In patent publication EP4663654A1 (Hangzhou Sciwind Biosciences Co., Ltd., dated 2025):
Starred links: 1 amine or outer side, 2 acyl side, 3 side chain; linkers in the order of their positions; H or OH if unused. Non-standard residues stand in square brackets, D forms with d. *: point of attachment. C20 diacid = O=C(O)CCCCCCCCCCCCCCCCCCC(=O)*; γGlu = O=C(O)[C@H](CCC(=O)[*:2])N[*:1]; Hyp = O=C(O)[C@@H]1C[C@@H](O)CN1; αMeN = C[C@](N)(CC(N)=O)C(=O)O

T1: human amylin receptor (AMY3) on CHO-K1/Ga15/AMY3 amylin receptor/CRE-luc cells (human, UniProt P30988 25-474; O60896 24-148)
T1 sequence (looked up) 1: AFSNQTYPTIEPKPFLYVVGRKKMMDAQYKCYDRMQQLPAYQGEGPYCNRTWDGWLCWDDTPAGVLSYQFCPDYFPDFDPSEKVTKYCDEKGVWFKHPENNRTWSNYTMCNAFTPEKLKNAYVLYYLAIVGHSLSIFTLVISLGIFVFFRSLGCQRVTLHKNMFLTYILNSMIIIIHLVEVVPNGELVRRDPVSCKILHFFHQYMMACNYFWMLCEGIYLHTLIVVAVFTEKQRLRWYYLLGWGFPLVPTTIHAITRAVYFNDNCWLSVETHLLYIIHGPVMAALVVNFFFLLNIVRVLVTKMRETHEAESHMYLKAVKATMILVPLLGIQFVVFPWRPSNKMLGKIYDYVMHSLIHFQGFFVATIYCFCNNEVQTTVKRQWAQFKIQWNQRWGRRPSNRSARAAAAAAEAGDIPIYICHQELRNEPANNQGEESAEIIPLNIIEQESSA
T1 sequence (looked up) 2: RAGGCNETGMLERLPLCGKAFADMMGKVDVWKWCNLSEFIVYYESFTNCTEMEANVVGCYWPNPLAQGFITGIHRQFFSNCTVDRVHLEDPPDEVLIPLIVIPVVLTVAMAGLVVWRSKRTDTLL


Biological target: T1, human amylin receptor (AMY3) on …
Assay: cell-based or functional assay

| EC50/nM, CRE-luciferase reporter in amylin receptor/CRE-luc CHO cells | Relative activity (the EC50 ratio of Cagrilintide to the compound) | Binder |
| --- | --- | --- |
| 0.03 nM | 233% | {C20 diacid-γGlu}-ASQLSTAATQRLADFLRHSSN[αMeN]LKPILPPTNVGSNT[Hyp]-NH2 [polypeptide derivative M55] |
| 0.031 nM | 84% | {C20 diacid-γGlu}-ASQLSTAATQRLADFLRHSSNNLKPILPPTNVGSNT[Hyp]-NH2 (SMILES CC[C@H](C)[C@H](NC(=O)[C@@H]1CCCN1C(=O)[C@H](CCCCN)NC(=O)[C@H](CC(C)C)NC(=O)[C@H](CC(N)=O)NC(=O)[C@H](CC(N)=O)NC(=O)[C@H](CO)NC(=O)[C@H](CO)NC(=O)[C@H](Cc1c[nH]cn1)NC(=O)[C@H](CCCNC(=N)N)NC(=O)[C@H](CC(C)C)NC(=O)[C@H](Cc1ccccc1)NC(=O)[C@H](CC(=O)O)NC(=O)[C@H](C)NC(=O)[C@H](CC(C)C)NC(=O)[C@H](CCCNC(=N)N)NC(=O)[C@H](CCC(N)=O)NC(=O)[C@@H](NC(=O)[C@H](C)NC(=O)[C@H](C)NC(=O)[C@@H](NC(=O)[C@H](CO)NC(=O)[C@H](CC(C)C)NC(=O)[C@H](CCC(N)=O)NC(=O)[C@H](CO)NC(=O)[C@H](C)NC(=O)CC[C@H](NC(=O)CCCCCCCCCCCCCCCCCCC(=O)O)C(=O)O)[C@@H](C)O)[C@@H](C)O)C(=O)N[C@@H](CC(C)C)C(=O)N1CCC[C@H]1C(=O)N1CCC[C@H]1C(=O)N[C@H](C(=O)N[C@@H](CC(N)=O)C(=O)N[C@H](C(=O)NCC(=O)N[C@@H](CO)C(=O)N[C@@H](CC(N)=O)C(=O)N[C@H](C(=O)N1C[C@H](O)C[C@H]1C(N)=O)[C@@H](C)O)C(C)C)[C@@H](C)O) [polypeptide derivative M5] |
| 0.08 nM | 200% | {C20 diacid-γGlu}-ASQLSTAATQRLADFLRHSSKNLKPILPPTNVGSNT[Hyp]-NH2 (SMILES CC[C@H](C)[C@H](NC(=O)[C@@H]1CCCN1C(=O)[C@H](CCCCN)NC(=O)[C@H](CC(C)C)NC(=O)[C@H](CC(N)=O)NC(=O)[C@H](CCCCN)NC(=O)[C@H](CO)NC(=O)[C@H](CO)NC(=O)[C@H](Cc1c[nH]cn1)NC(=O)[C@H](CCCNC(=N)N)NC(=O)[C@H](CC(C)C)NC(=O)[C@H](Cc1ccccc1)NC(=O)[C@H](CC(=O)O)NC(=O)[C@H](C)NC(=O)[C@H](CC(C)C)NC(=O)[C@H](CCCNC(=N)N)NC(=O)[C@H](CCC(N)=O)NC(=O)[C@@H](NC(=O)[C@H](C)NC(=O)[C@H](C)NC(=O)[C@@H](NC(=O)[C@H](CO)NC(=O)[C@H](CC(C)C)NC(=O)[C@H](CCC(N)=O)NC(=O)[C@H](CO)NC(=O)[C@H](C)NC(=O)CC[C@H](NC(=O)CCCCCCCCCCCCCCCCCCC(=O)O)C(=O)O)[C@@H](C)O)[C@@H](C)O)C(=O)N[C@@H](CC(C)C)C(=O)N1CCC[C@H]1C(=O)N1CCC[C@H]1C(=O)N[C@H](C(=O)N[C@@H](CC(N)=O)C(=O)N[C@H](C(=O)NCC(=O)N[C@@H](CO)C(=O)N[C@@H](CC(N)=O)C(=O)N[C@H](C(=O)N1C[C@H](O)C[C@H]1C(N)=O)[C@@H](C)O)C(C)C)[C@@H](C)O) [polypeptide derivative M53] |
| 0.066 nM | 39% | {C20 diacid-γGlu}-ASQLSTAVTQRLADFLRHSSNNLKPILPPTNVGSNT[Hyp]-NH2 (SMILES CC[C@H](C)[C@H](NC(=O)[C@@H]1CCCN1C(=O)[C@H](CCCCN)NC(=O)[C@H](CC(C)C)NC(=O)[C@H](CC(N)=O)NC(=O)[C@H](CC(N)=O)NC(=O)[C@H](CO)NC(=O)[C@H](CO)NC(=O)[C@H](Cc1c[nH]cn1)NC(=O)[C@H](CCCNC(=N)N)NC(=O)[C@H](CC(C)C)NC(=O)[C@H](Cc1ccccc1)NC(=O)[C@H](CC(=O)O)NC(=O)[C@H](C)NC(=O)[C@H](CC(C)C)NC(=O)[C@H](CCCNC(=N)N)NC(=O)[C@H](CCC(N)=O)NC(=O)[C@@H](NC(=O)[C@@H](NC(=O)[C@H](C)NC(=O)[C@@H](NC(=O)[C@H](CO)NC(=O)[C@H](CC(C)C)NC(=O)[C@H](CCC(N)=O)NC(=O)[C@H](CO)NC(=O)[C@H](C)NC(=O)CC[C@H](NC(=O)CCCCCCCCCCCCCCCCCCC(=O)O)C(=O)O)[C@@H](C)O)C(C)C)[C@@H](C)O)C(=O)N[C@@H](CC(C)C)C(=O)N1CCC[C@H]1C(=O)N1CCC[C@H]1C(=O)N[C@H](C(=O)N[C@@H](CC(N)=O)C(=O)N[C@H](C(=O)NCC(=O)N[C@@H](CO)C(=O)N[C@@H](CC(N)=O)C(=O)N[C@H](C(=O)N1C[C@H](O)C[C@H]1C(N)=O)[C@@H](C)O)C(C)C)[C@@H](C)O) [polypeptide derivative M7] |
| 0.042 nM | 62% | {C20 diacid-γGlu}-ASQLSTAATQRLADFLRHFTDRDRDILPPTNVGSNTP-NH2 (SMILES CC[C@H](C)[C@H](NC(=O)[C@H](CC(=O)O)NC(=O)[C@H](CCCNC(=N)N)NC(=O)[C@H](CC(=O)O)NC(=O)[C@H](CCCNC(=N)N)NC(=O)[C@H](CC(=O)O)NC(=O)[C@@H](NC(=O)[C@H](Cc1ccccc1)NC(=O)[C@H](Cc1c[nH]cn1)NC(=O)[C@H](CCCNC(=N)N)NC(=O)[C@H](CC(C)C)NC(=O)[C@H](Cc1ccccc1)NC(=O)[C@H](CC(=O)O)NC(=O)[C@H](C)NC(=O)[C@H](CC(C)C)NC(=O)[C@H](CCCNC(=N)N)NC(=O)[C@H](CCC(N)=O)NC(=O)[C@@H](NC(=O)[C@H](C)NC(=O)[C@H](C)NC(=O)[C@@H](NC(=O)[C@H](CO)NC(=O)[C@H](CC(C)C)NC(=O)[C@H](CCC(N)=O)NC(=O)[C@H](CO)NC(=O)[C@H](C)NC(=O)CC[C@H](NC(=O)CCCCCCCCCCCCCCCCCCC(=O)O)C(=O)O)[C@@H](C)O)[C@@H](C)O)[C@@H](C)O)C(=O)N[C@@H](CC(C)C)C(=O)N1CCC[C@H]1C(=O)N1CCC[C@H]1C(=O)N[C@H](C(=O)N[C@@H](CC(N)=O)C(=O)N[C@H](C(=O)NCC(=O)N[C@@H](CO)C(=O)N[C@@H](CC(N)=O)C(=O)N[C@H](C(=O)N1CCC[C@H]1C(N)=O)[C@@H](C)O)C(C)C)[C@@H](C)O) [polypeptide derivative M6] |
| 0.053 nM | 49% | {C20 diacid-γGlu}-ASELSTAALGRLADFLRHSSNNLKPILPPTNVGSNT[Hyp]-NH2 (SMILES CC[C@H](C)[C@H](NC(=O)[C@@H]1CCCN1C(=O)[C@H](CCCCN)NC(=O)[C@H](CC(C)C)NC(=O)[C@H](CC(N)=O)NC(=O)[C@H](CC(N)=O)NC(=O)[C@H](CO)NC(=O)[C@H](CO)NC(=O)[C@H](Cc1c[nH]cn1)NC(=O)[C@H](CCCNC(=N)N)NC(=O)[C@H](CC(C)C)NC(=O)[C@H](Cc1ccccc1)NC(=O)[C@H](CC(=O)O)NC(=O)[C@H](C)NC(=O)[C@H](CC(C)C)NC(=O)[C@H](CCCNC(=N)N)NC(=O)CNC(=O)[C@H](CC(C)C)NC(=O)[C@H](C)NC(=O)[C@H](C)NC(=O)[C@@H](NC(=O)[C@H](CO)NC(=O)[C@H](CC(C)C)NC(=O)[C@H](CCC(=O)O)NC(=O)[C@H](CO)NC(=O)[C@H](C)NC(=O)CC[C@H](NC(=O)CCCCCCCCCCCCCCCCCCC(=O)O)C(=O)O)[C@@H](C)O)C(=O)N[C@@H](CC(C)C)C(=O)N1CCC[C@H]1C(=O)N1CCC[C@H]1C(=O)N[C@H](C(=O)N[C@@H](CC(N)=O)C(=O)N[C@H](C(=O)NCC(=O)N[C@@H](CO)C(=O)N[C@@H](CC(N)=O)C(=O)N[C@H](C(=O)N1C[C@H](O)C[C@H]1C(N)=O)[C@@H](C)O)C(C)C)[C@@H](C)O) [polypeptide derivative M1] |
| 0.06 nM | 267% | {C20 diacid-γGlu}-ASQLSTAATQRLADFLRHSSRNLKPILPPTNVGSNT[Hyp]-NH2 (SMILES CC[C@H](C)[C@H](NC(=O)[C@@H]1CCCN1C(=O)[C@H](CCCCN)NC(=O)[C@H](CC(C)C)NC(=O)[C@H](CC(N)=O)NC(=O)[C@H](CCCNC(=N)N)NC(=O)[C@H](CO)NC(=O)[C@H](CO)NC(=O)[C@H](Cc1c[nH]cn1)NC(=O)[C@H](CCCNC(=N)N)NC(=O)[C@H](CC(C)C)NC(=O)[C@H](Cc1ccccc1)NC(=O)[C@H](CC(=O)O)NC(=O)[C@H](C)NC(=O)[C@H](CC(C)C)NC(=O)[C@H](CCCNC(=N)N)NC(=O)[C@H](CCC(N)=O)NC(=O)[C@@H](NC(=O)[C@H](C)NC(=O)[C@H](C)NC(=O)[C@@H](NC(=O)[C@H](CO)NC(=O)[C@H](CC(C)C)NC(=O)[C@H](CCC(N)=O)NC(=O)[C@H](CO)NC(=O)[C@H](C)NC(=O)CC[C@H](NC(=O)CCCCCCCCCCCCCCCCCCC(=O)O)C(=O)O)[C@@H](C)O)[C@@H](C)O)C(=O)N[C@@H](CC(C)C)C(=O)N1CCC[C@H]1C(=O)N1CCC[C@H]1C(=O)N[C@H](C(=O)N[C@@H](CC(N)=O)C(=O)N[C@H](C(=O)NCC(=O)N[C@@H](CO)C(=O)N[C@@H](CC(N)=O)C(=O)N[C@H](C(=O)N1C[C@H](O)C[C@H]1C(N)=O)[C@@H](C)O)C(C)C)[C@@H](C)O) [polypeptide derivative M54] |
